Experiments:
Conditions in all cases: Sus scrofa
NCc1c[nH]c(C(=O)O)c1 [1] = experiment: (§1) Activity of pig GABA aminotransferase using alpha-ketoglutarate as substrate after 16 hrs by Hanes-Woolf plot analysis
NCc1ccc(C(=O)O)[nH]1 [2] = experiment: as §1
NCc1ccc(C(=O)O)o1 [3] = experiment: as §1
NCc1ccc(C(=O)O)s1 [4] = experiment: as §1
NCc1coc(C(=O)O)c1 [5] = experiment: as §1
NCc1cocc1C(=O)O [6] = experiment: as §1
NCc1csc(C(=O)O)c1 [7] = experiment: as §1
NCc1cscc1C(=O)O = experiment: as §1
NCc1c[nH]c(C(=O)O)c1 [8] = experiment: (§2) Ratio of Kcat to Km for pig GABA aminotransferase
NCc1ccc(C(=O)O)[nH]1 [9] = experiment: as §2
NCc1ccc(C(=O)O)o1 [10] = experiment: as §2
NCc1ccc(C(=O)O)s1 [11] = experiment: as §2
NCc1coc(C(=O)O)c1 [12] = experiment: as §2
NCc1cocc1C(=O)O [13] = experiment: as §2
NCc1csc(C(=O)O)c1 [14] = experiment: as §2

Chain of 4-aminobutyrate aminotransferase, mitochondrial (Sus scrofa), P80147 (P80147 whole entry): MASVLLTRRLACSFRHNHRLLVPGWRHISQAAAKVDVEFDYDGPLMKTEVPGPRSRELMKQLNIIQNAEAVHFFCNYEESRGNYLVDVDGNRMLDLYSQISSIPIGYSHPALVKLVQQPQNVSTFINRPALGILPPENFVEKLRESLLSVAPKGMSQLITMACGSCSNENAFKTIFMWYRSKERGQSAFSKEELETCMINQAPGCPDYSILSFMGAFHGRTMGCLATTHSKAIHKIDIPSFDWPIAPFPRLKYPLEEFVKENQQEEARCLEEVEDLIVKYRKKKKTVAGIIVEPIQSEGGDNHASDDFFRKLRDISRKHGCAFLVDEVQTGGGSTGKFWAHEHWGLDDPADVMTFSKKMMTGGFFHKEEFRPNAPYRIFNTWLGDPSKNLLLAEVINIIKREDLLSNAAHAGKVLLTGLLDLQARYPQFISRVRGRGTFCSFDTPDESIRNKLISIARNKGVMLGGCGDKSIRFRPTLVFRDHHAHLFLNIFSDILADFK

## 4-aminobutyrate aminotransferase, mitochondrial (Sus scrofa), P80147
NCc1c[nH]c(C(=O)O)c1 [1]
  Km: 1400 µM
  kcat: 3.4 ×10⁻³ /min
NCc1ccc(C(=O)O)[nH]1 [2]
  Km: 9500 µM
  kcat: 1.5 ×10⁻³ /min
NCc1ccc(C(=O)O)o1 [3]
  Km: 2100 µM
  kcat: 3.4 ×10⁻² /min
NCc1ccc(C(=O)O)s1 [4]
  Km: 6300 µM
  kcat: 1 ×10⁻² /min
NCc1coc(C(=O)O)c1 [5]
  Km: 310 µM
  kcat: 2.3 ×10⁻³ /min
NCc1cocc1C(=O)O [6]
  Km: 2800 µM
  kcat: 8.3 ×10⁻⁴ /min
NCc1csc(C(=O)O)c1 [7]
  Km: 1700 µM
  kcat: 5.2 ×10⁻³ /min
NCc1cscc1C(=O)O
  Km: > 10000 µM
NCc1c[nH]c(C(=O)O)c1 [8]
  kcat/Km: 0.04 M⁻¹ s⁻¹
NCc1ccc(C(=O)O)[nH]1 [9]
  kcat/Km: 0.00267 M⁻¹ s⁻¹
NCc1ccc(C(=O)O)o1 [10]
  kcat/Km: 0.267 M⁻¹ s⁻¹
NCc1ccc(C(=O)O)s1 [11]
  kcat/Km: 0.0267 M⁻¹ s⁻¹
NCc1coc(C(=O)O)c1 [12]
  kcat/Km: 0.123 M⁻¹ s⁻¹
NCc1cocc1C(=O)O [13]
  kcat/Km: 0.005 M⁻¹ s⁻¹
NCc1csc(C(=O)O)c1 [14]
  kcat/Km: 0.00517 M⁻¹ s⁻¹
